This note sets out measurements from paper PMC12318543.

Where two headings read alike, the source gives them in different places.

For assay [1], the target named is PtuA (Escherichia coli Septu system) (Escherichia coli (strain ATCC 25922)). Kind of assay: cryo-EM structure.
For assay [2] the target is unchanged. Kind of assay: cryo-EM structure. The source holds these as a separate data set.
The target in assay [3] is PtuA L81R mutant (Escherichia coli (strain ATCC 25922)). Briefly: mass photometry.

In the case of “PtuA (Escherichia coli Septu system) (natural protein)”, the stoichiometry N in assay [1] and in assay [2] was 6 in each case.

For the substance PtuA L81R mutant (natural protein), the stoichiometry N – broadly, a count of units in the complex or per binding partner – in assay [3] turned out to be 2.
